# Columns and labels:
# [1] = biological target: T1, FPR1 (UniProt P21462 1-350, limits assumed); assay: cell-based or functional assay
# T1 sequence (looked up): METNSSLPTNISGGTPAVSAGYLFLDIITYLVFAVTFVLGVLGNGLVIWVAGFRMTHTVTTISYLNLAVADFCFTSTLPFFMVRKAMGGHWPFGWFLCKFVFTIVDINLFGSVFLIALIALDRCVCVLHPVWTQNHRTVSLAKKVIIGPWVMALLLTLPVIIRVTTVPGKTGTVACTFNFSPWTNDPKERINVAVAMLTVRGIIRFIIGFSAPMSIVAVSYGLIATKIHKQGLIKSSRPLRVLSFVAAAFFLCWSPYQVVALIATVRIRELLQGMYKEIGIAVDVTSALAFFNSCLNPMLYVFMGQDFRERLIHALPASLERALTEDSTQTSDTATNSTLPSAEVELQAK
# [2] = biological target: T2, formyl peptide receptor 2 (FPR2) (UniProt P25090 1-351, limits assumed); assay: cell-based or functional assay
# T2 sequence (looked up): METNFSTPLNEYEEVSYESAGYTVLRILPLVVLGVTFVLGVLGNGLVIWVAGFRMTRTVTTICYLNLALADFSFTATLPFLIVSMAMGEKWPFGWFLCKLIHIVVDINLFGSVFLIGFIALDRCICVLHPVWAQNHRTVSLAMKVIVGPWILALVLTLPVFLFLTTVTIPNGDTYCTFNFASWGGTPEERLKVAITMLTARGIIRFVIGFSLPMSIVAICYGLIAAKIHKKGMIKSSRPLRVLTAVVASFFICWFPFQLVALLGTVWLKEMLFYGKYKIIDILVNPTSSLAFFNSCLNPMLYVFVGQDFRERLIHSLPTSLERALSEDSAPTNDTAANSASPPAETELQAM
binder,measurement,setting,value
RMRYKPM (HELM PEPTIDE1{[CCCCCCCC(=O)[*:2]].R.M.R.Y.K.P.[dM].[am]}$$$$V2.0; SMILES CCCCCCCC(=O)N[C@@H](CCCNC(=N)N)C(=O)N[C@@H](CCSC)C(=O)N[C@@H](CCCNC(=N)N)C(=O)N[C@@H](Cc1ccc(O)cc1)C(=O)N[C@@H](CCCCN)C(=O)N1CCC[C@H]1C(=O)N[C@H](CCSC)C(N)=O) [peptide of SEQ ID NO 53],EC50 for [Ca2+],[1],> 10 µM
same,EC50 for [Ca2+],[2],< 0.01 µM
HMRYKPM (HELM PEPTIDE1{[CCCCCCCC(=O)[*:2]].H.M.R.Y.K.P.[dM].[am]}$$$$V2.0; SMILES CCCCCCCC(=O)N[C@@H](Cc1c[nH]cn1)C(=O)N[C@@H](CCSC)C(=O)N[C@@H](CCCNC(=N)N)C(=O)N[C@@H](Cc1ccc(O)cc1)C(=O)N[C@@H](CCCCN)C(=O)N1CCC[C@H]1C(=O)N[C@H](CCSC)C(N)=O) [peptide of SEQ ID NO 61],EC50 for [Ca2+],[1],> 10 µM
same,EC50 for [Ca2+],[2],< 0.01 µM
MRYKPM (HELM PEPTIDE1{[ac].M.R.Y.K.P.[dM].[am]}$$$$V2.0; SMILES CSCC[C@H](NC(C)=O)C(=O)N[C@@H](CCCNC(=N)N)C(=O)N[C@@H](Cc1ccc(O)cc1)C(=O)N[C@@H](CCCCN)C(=O)N1CCC[C@H]1C(=O)N[C@H](CCSC)C(N)=O) [peptide of SEQ ID NO 55],EC50 for [Ca2+],[1],> 10 µM
same,EC50 for [Ca2+],[2],< 0.01 µM
HMRYKPM (HELM PEPTIDE1{[ac].H.M.R.Y.K.P.[dM].[am]}$$$$V2.0; SMILES CSCC[C@H](NC(=O)[C@H](Cc1c[nH]cn1)NC(C)=O)C(=O)N[C@@H](CCCNC(=N)N)C(=O)N[C@@H](Cc1ccc(O)cc1)C(=O)N[C@@H](CCCCN)C(=O)N1CCC[C@H]1C(=O)N[C@H](CCSC)C(N)=O) [peptide of SEQ ID NO 59],EC50 for [Ca2+],[1],> 10 µM
same,EC50 for [Ca2+],[2],< 0.01 µM
RMRYKPM (HELM PEPTIDE1{[ac].R.M.R.Y.K.P.[dM].[am]}$$$$V2.0; SMILES CSCC[C@H](NC(=O)[C@H](CCCNC(=N)N)NC(C)=O)C(=O)N[C@@H](CCCNC(=N)N)C(=O)N[C@@H](Cc1ccc(O)cc1)C(=O)N[C@@H](CCCCN)C(=O)N1CCC[C@H]1C(=O)N[C@H](CCSC)C(N)=O) [peptide of SEQ ID NO 51],EC50 for [Ca2+],[1],> 10 µM
same,EC50 for [Ca2+],[2],< 0.01 µM
HMRYKPM (HELM PEPTIDE1{[CCCC(=O)[*:2]].H.M.R.Y.K.P.[dM].[am]}$$$$V2.0; SMILES CCCC(=O)N[C@@H](Cc1c[nH]cn1)C(=O)N[C@@H](CCSC)C(=O)N[C@@H](CCCNC(=N)N)C(=O)N[C@@H](Cc1ccc(O)cc1)C(=O)N[C@@H](CCCCN)C(=O)N1CCC[C@H]1C(=O)N[C@H](CCSC)C(N)=O) [peptide of SEQ ID NO 60],EC50 for [Ca2+],[1],> 10 µM
same,EC50 for [Ca2+],[2],< 0.01 µM
RMRYKPM (HELM PEPTIDE1{R.M.R.Y.K.P.[dM].[am]}$$$$V2.0; N-terminus assumed; SMILES CSCC[C@H](NC(=O)[C@@H](N)CCCNC(=N)N)C(=O)N[C@@H](CCCNC(=N)N)C(=O)N[C@@H](Cc1ccc(O)cc1)C(=O)N[C@@H](CCCCN)C(=O)N1CCC[C@H]1C(=O)N[C@H](CCSC)C(N)=O) [peptide of SEQ ID NO 50],EC50 for [Ca2+],[1],> 10 µM
same,EC50 for [Ca2+],[2],< 0.01 µM
HMRYKPM (HELM PEPTIDE1{H.M.R.Y.K.P.[dM].[am]}$$$$V2.0; N-terminus assumed; SMILES CSCC[C@H](NC(=O)[C@@H](N)Cc1c[nH]cn1)C(=O)N[C@@H](CCCNC(=N)N)C(=O)N[C@@H](Cc1ccc(O)cc1)C(=O)N[C@@H](CCCCN)C(=O)N1CCC[C@H]1C(=O)N[C@H](CCSC)C(N)=O) [peptide of SEQ ID NO 58],EC50 for [Ca2+],[1],> 10 µM
same,EC50 for [Ca2+],[2],< 0.01 µM
MRYKPM (HELM PEPTIDE1{[CCCCCCCC(=O)[*:2]].M.R.Y.K.P.[dM].[am]}$$$$V2.0; SMILES CCCCCCCC(=O)N[C@@H](CCSC)C(=O)N[C@@H](CCCNC(=N)N)C(=O)N[C@@H](Cc1ccc(O)cc1)C(=O)N[C@@H](CCCCN)C(=O)N1CCC[C@H]1C(=O)N[C@H](CCSC)C(N)=O) [peptide of SEQ ID NO 57],EC50 for [Ca2+],[1],> 10 µM
same,EC50 for [Ca2+],[2],< 0.01 µM
PMRYKYM (HELM PEPTIDE1{[CCCC(=O)[*:2]].P.M.R.Y.K.Y.[dM].[am]}$$$$V2.0; SMILES CCCC(=O)N1CCC[C@H]1C(=O)N[C@@H](CCSC)C(=O)N[C@@H](CCCNC(=N)N)C(=O)N[C@@H](Cc1ccc(O)cc1)C(=O)N[C@@H](CCCCN)C(=O)N[C@@H](Cc1ccc(O)cc1)C(=O)N[C@H](CCSC)C(N)=O) [peptide of SEQ ID NO 47],EC50 for [Ca2+],[1],> 10 µM
same,EC50 for [Ca2+],[2],< 0.01 µM
RMRYKPM (HELM PEPTIDE1{[CCCC(=O)[*:2]].R.M.R.Y.K.P.[dM].[am]}$$$$V2.0; SMILES CCCC(=O)N[C@@H](CCCNC(=N)N)C(=O)N[C@@H](CCSC)C(=O)N[C@@H](CCCNC(=N)N)C(=O)N[C@@H](Cc1ccc(O)cc1)C(=O)N[C@@H](CCCCN)C(=O)N1CCC[C@H]1C(=O)N[C@H](CCSC)C(N)=O) [peptide of SEQ ID NO 52],EC50 for [Ca2+],[1],> 10 µM
same,EC50 for [Ca2+],[2],< 0.01 µM
RMRYKVM (HELM PEPTIDE1{[ac].R.M.R.Y.K.V.[dM].[am]}$$$$V2.0; SMILES CSCC[C@H](NC(=O)[C@H](CCCNC(=N)N)NC(C)=O)C(=O)N[C@@H](CCCNC(=N)N)C(=O)N[C@@H](Cc1ccc(O)cc1)C(=O)N[C@@H](CCCCN)C(=O)N[C@H](C(=O)N[C@H](CCSC)C(N)=O)C(C)C) [peptide of SEQ ID NO 6],EC50 for [Ca2+],[1],> 10 µM
same,EC50 for [Ca2+],[2],< 0.01 µM
MRYKPM (HELM PEPTIDE1{M.R.Y.K.P.[dM].[am]}$$$$V2.0; N-terminus assumed; SMILES CSCC[C@H](N)C(=O)N[C@@H](CCCNC(=N)N)C(=O)N[C@@H](Cc1ccc(O)cc1)C(=O)N[C@@H](CCCCN)C(=O)N1CCC[C@H]1C(=O)N[C@H](CCSC)C(N)=O) [peptide of SEQ ID NO 54],EC50 for [Ca2+],[1],> 10 µM
same,EC50 for [Ca2+],[2],< 0.01 µM
MRYKPM (HELM PEPTIDE1{[CCCC(=O)[*:2]].M.R.Y.K.P.[dM].[am]}$$$$V2.0; SMILES CCCC(=O)N[C@@H](CCSC)C(=O)N[C@@H](CCCNC(=N)N)C(=O)N[C@@H](Cc1ccc(O)cc1)C(=O)N[C@@H](CCCCN)C(=O)N1CCC[C@H]1C(=O)N[C@H](CCSC)C(N)=O) [peptide of SEQ ID NO 56],EC50 for [Ca2+],[1],> 10 µM
same,EC50 for [Ca2+],[2],< 0.01 µM
